# Molecular target: the molecule itself
# Assay: cryo-EM structure; cryoET and subtomogram averaging of spikes on vitrified, chemically unfixed HCoV-NL63 virions in NTE buffer (20 mM Tris pH 8.0, 120 mM NaCl, 1 mM EDTA); 18,356 spike subvolumes; C3 symmetry imposed; focused classification of RBD and domain 0
protein,measurement,value
"human coronavirus NL63 (HCoV-NL63) spike glycoprotein (S) (natural protein, N-linked glycans at 39 N-glycosylation sites (among them N240, N354, N358, N426, N486, N506, N512, N749, N844, N852, N1111, N1196, N1201, N1218, N1242, N1247, N1277), Spike glycoprotein S of human coronavirus NL63 (virus from BEI Resources NR-470), full-length S in the viral envelope; not cleaved at S1/S2 (single band of about 250 kD); Native membrane-anchored trimer on virions; The model covers the crown, residues 1-1224; the stalk (1216-1297) is only a predicted model; also called S trimer; S protomer; source: no chemical fixation) CNSNANLSMLQLGVPDNSSTIVTGLLPTHWFCANQSTSVYSANGFFYIDVGNHRSAFALHTGYYDANQYYIYVTNEIGLNASVTLKICKFSRNTTFDFLSNASSSFDCIVNLLFTEQLGAPLGITISGETVRLHLYNVTRTFYVPAAYKLTKLSVKCYFNYSCVFSVVNATVTVNVTTHNGRVVNYTVCDDCNGYTDNIFSVQQDGRIPNGFPFNNWFLLTNGSTLVDGVSRLYQPLRLTCLWPVPGLKSSTGFVYFNATGSDVNCNGYQHNSVVDVMRYNLNFSANSLDNLKSGVIVFKTLQYDVLFYCSNSSSGVLDTTIPFGPSSQPYYCFINSTINTTHVSTFVGILPPTVREIVVARTGQFYINGFKYFDLGFIEAVNFNVTTASATDFWTVAFATFVDVLVNVSATNIQNLLYCDSPFEKLQCEHLQFGLQDGFYSANFLDDNVLPETYVALPIYYQHTDINFTATASFGGSCYVCKPHQVNISLNGNTSVCVRTSHFSIRYIYNRVKSGSPGDSSWHIYLKSGTCPFSFSKLNNFQKFKTICFSTVEVPGSCNFPLEATWHYTSYTIVGALYVTWSEGNSITGVPYPVSGIREFSNLVLNNCTKYNIYDYVGTGIIRSSNQSLAGGITYVSNSGNLLGFKNVSTGNIFIVTPCNQPDQVAVYQQSIIGAMTAVNESRYGLQNLLQLPNFYYVSNGGNNCTTAVMTYSNFGICADGSLIPVRPRNSSDNGISAIITANLSIPSNWTTSVQVEYLQITSTPIVVDCATYVCNGNPRCKNLLKQYTSACKTIEDALRLSAHLETNDVSSMLTFDSNAFSLANVTSFGDYNLSSVLPQRNIRSSRIAGRSALEDLLFSKVVTSGLGTVDVDYKSCTKGLSIADLACAQYYNGIMVLPGVADAERMAMYTGSLIGGMVLGGLTSAAAIPFSLALQARLNYVALQTDVLQENQKILAASFNKAINNIVASFSSVNDAITQTAEAIHTVTIALNKIQDVVNQQGSALNHLTSQLRHNFQAISNSIQAIYDRLDSIQADQQVDRLITGRLAALNAFVSQVLNKYTEVRGSRRLAQQKINECVKSQSNRYGFCGNGTHIFSIVNSAPDGLLFLHTVLLPTDYKNVKAWSGICVDGIYGYVLRQPNLVLYSDNGVFRVTSRVMFQPRLPVLSDFVQIYNCNVTFVNISRVELHTVIPDYVDVNKTLQEFAQNLPKYVKPNFDLTPFNLTYLNLSSELKQLEAKTASLFQTTVELQGLIDQINSTYVDLKLLNRFENYIKWPWWVWLIISVVFVVLLSLLVFCCLSTGCCGCCNCLTSSMRGCCDCGSTKLPYYEFEKVHVQ",stoichiometry N,3

# Reference: paper PMC10630519, “Structural insights into the modulation of coronavirus spike tilting and infectivity by hinge glycans” (Nature Communications, 2023)
